Experimental data from patent US20040157314A1, “Inhibitors of Staphylococcus aureus primary sigma factor and uses thereof” (priority 2003, published 2004).

How the values were obtained:
[1] = molecular target: T1, reconstituted holoenzyme from HK-STAAU_R12 and S. aureus core enzyme (Staphylococcus aureus, UniProt P0A0J0); assay: In vitro transcription and TCA precipitation assay, 96-well; assay type: biochemical; conditions: 10 μM, FIG. 8
T1 construct: made in house; S. aureus RN4220 transformed with pTMHB rpoA (core enzyme)
Source text: In order to convert this gel-based transcription assay to a 96-well high through put format, we used an in vitro transcription assay followed by a TCA precipitation step in order to separate radiolabeled nucleotides incorporated into nucleic acid from unincorporated label. Such format is convenient as it will allow rapid screening with a large collection of compounds. In this TCA precipitation assay, we reconstituted the holoenzyme from STAAU_R12 and S. aureus core enzyme instead of using the E. coli core enzyme with STAAU_R12.
The E. coli core enzyme (Epicentre) was used as a positive control for monitoring transcription efficiency. The set up of high throughput screening assay for STAAU_R12 is illustrated in FIG. 7. […] UTP (3000 Ci/mmole), 1 U of RNasin (Promega) and 40 ng of pTMSM template DNA (a pTM derivative vector). To investigate the in vitroeffectofG1ORF67 on STAAU_R12 mediated transcriptional activation, G1ORF67 and a negative control (10 μM) were added to the mixture and the reaction was incubated for 1 h at 37° C. in a 96-well PCR-plate (BD-Falcon™). […] After filtration, the wells were washed 3 times (225 μl per wash) with 10% TCA, 2 times (225 μl per wash) with 95% ethanol and then 75 μl of liquid scintillation cocktail was added and the plates were counted for 30 s on a Trilux™ Microbeta counter (Perkin Elmer-Packard).

HK-STAAU_R12 [2] = molecular target: T2, HK-STAAU_R12 (Staphylococcus aureus, UniProt P0A0I8 1-368); assay: TR-FRET, 32 nM of both GB-G1ORF67 and HK-STAAU_R12
T2 construct: not shown: N-terminal 6x histidine tag and heart muscle kinase (HMK) phosphorylation site of vector pH6K

HK-STAAU_R12 [3] = molecular target: T2, HK-STAAU_R12; assay: TR-FRET competition, untagged G1ORF67 against 32 nM GB-G1ORF67 on 32 nM HK-STAAU_R12
[4] = molecular target: STAAU_R12 full length fused to the Gal4 activation domain (p[…]_R12) (Staphylococcus aureus, UniProt P0A0I8 1-368); assay: yeast two-hybrid, AH109
[5] = molecular target: SV40 large T antigen (pGADT7-LargeT) (SV40, UniProt P03070 86-708); assay: yeast two-hybrid, AH109
S. aureus RN4220 = assay: Growth kinetics assay (CFU) of S. aureus clones expressing phage ORF under arsenite-inducible promoter; assay type: cell-based, Staphylococcus aureus
Source text: Bacteriophage ORFs encoded in phage G1 genome were identified as follows: beginning at the first nucleotide, the phage G 1 genome sequence is scanned for a start codon. When one is identified, the number of in-frame codons is counted until a termination codon is reached. A minimum threshold of 33 codons defines this bounded sequence as an ORF. This procedure is repeated, starting at the next nucleotide following the last stop codon, until the end of the phage sequence is reached. The scan is performed in an identical manner on all three reading frames of both DNA strands of the phage sequence, in order to identify all the putative ORFs. Putative genes are then identified based on the presence of a Shine-Dalgarno sequence within the 15 nucleotides upstream of the start codon. The E. coli-S. aureus shuttle vector pTOO21 (Tauriainen et al., Appl. Environ. Microbiol. (1997) 63:4456-64), containing the arsenite-inducible ars promoter and the arsR gene, was modified with an optimal Shine-Dalgarno sequence (AGGAGG) followed by a multiple cloning site (MCS). DNA encoding individual phage ORFs was amplified by PCR from phage genomic DNA and cloned into the MCS of the modified vector. […]

[6] = molecular target: E. coli holoenzyme (E. coli sigma factor and E. coli core RNA polymerase) (Escherichia coli, UniProt P00579); conditions: pre-incubation with E. coli holoenzyme, FIG. 6C
Description: (§1) The E. coli holoenzyme (Epicentre) was used at 10 nM as a positive control for monitoring transcription efficiency. Assays were done with increasing amounts (0 to 500 nM) of STAAU_R12 and 25 nM of E. coli core in a total volume of 25 μl containing 40 mM Tris-acetate pH 7.9, 100 mM NaCl, 5 mM MgCl2, 1 mM DTT, 0.1 mg/ml BSA, 0.5 mM of each ATP, GTP, CTP, 0.25 mM UTP, 5 μCi [^32P] UTP (3000 Ci/mmole), 2 units of RNasin (Promega) and 40 ng of pB6 template DNA (Lutz and Bujard, Nuc. Acid Res. (1997) 6:1203-10) harboring λPL promoter, kanamycin gene and the Col E1 RNA-1. […] Reactions were incubated at 37° C. for 15 min and stopped by addition of 5 μl of loading buffer (95% formamide, 20 mM EDTA and 0.05% of each xylene cyanol and bromophenol blue). Samples were boiled for 5 min and electrophoresed on a 6% polyacrylamide/8 M urea gel.

[7] = molecular target: holoenzyme reconstituted from STAAU_R12 and E. coli core RNA polymerase (Staphylococcus aureus, UniProt P0A0J0); assay: In vitro transcription assay (polyacrylamide/urea gel), reconstituted holoenzyme; assay type: biochemical; conditions: pre-incubation with STAAU_R12, 0 to 2 μM, FIG. 6B
Description: as §1

[8] = molecular target: STAAU_R12 with E. coli core and biotinylated λPR oligonucleotide (Staphylococcus aureus, UniProt P0A0J0); assay type: biochemical; conditions: 0 to 4 μM; 32 nM HK-STAAU_R12, 45 nM biotinylated DNA
Description: We developed a fluorescence-based high throughput assay to monitor the interaction of STAAU_R12 with its cognate DNA. […] Europium cryptate (Eu) labeled anti-Histidine was used as an energy donor and Allophycocyanin (APC) labeled streptavidin was used as an energy acceptor.
The reaction was incubated for 15 min at room temperature and then, 6 μl of a mixture of Eu-conjugated anti-Histidine (CIS International) and APC-conjugated streptavidin (Prozyme) were added to final concentrations of 3 and 15 nM, respectively. Samples were mixed and 25 μl of the mixture was transferred to a 96-well opaque plate (Molecular Devices). After 45 min incubation at room temperature, the emission at 665 nm (APC) and at 612 nm (Eu) arising from excitation as 340 nm was measured using a Tecan Ultra™ plate reader. […] A mutated version of untagged λPR oligonucleotide consisting of a substitution of the −35 region (from TTGACT in the wild type PR oligonucleotide to ACTTTG in the mutated oligonucleotide) was used as a non specific competitor. Competitors were added to the reaction mixture prior to addition of Eu and APC conjugates.

STAAU_R12 [9] = molecular target: T3, STAAU_R12 (Staphylococcus aureus, UniProt P0A0J0); assay: Yeast two-hybrid analysis; assay type: cell-based; set-up: expressed in transfected cells; host or cells: yeast strain AH109 (Clontech); conditions: yeast AH109
Source text: To validate the interaction between G1ORF67 and STAAU_R12, we first performed yeast two-hybrid analyses with full length and deletions within both STAAU_R12 and G1ORF67. The inserts were cloned into pGADT7™ and pGBK™, the yeast vectors for two hybrid system studies (Clontech Laboratories) as fusions with the Gal4 activation domain (for pGADT7™) as well as with the Gal4 DNA-binding domain (for pGBK™). pGADT7 and pGBK recombinant plasmids bearing different combinations of constructs were introduced into a yeast strain (AH109, Clontech Laboratories), previously engineered to contain chromosomally-integrated copies of E. coli lacZand the selectable HIS3 and ADE2 genes. […]
To define the minimal region of STAAU_R12 conferring an interaction with G1ORF67, six deletions of STAAU_R12 were cloned into pGADT7 and introduced into AH109 yeast cells with the pGBK vector containing the full length sequence of G1ORF67. The resulting co-transformants were analyzed for their ability to induce expression of reporter genes.
To define the minimal region of G1ORF67 conferring an interaction with STAAU_R12, six deletions of G1ORF67 were cloned into pGADT7 and introduced into AH109 yeast cells with the pGBK vector containing the full length sequence of STAAU_R12. The resulting co-transformants were analyzed for their ability to induce expression of reporter genes required for viability on selective medium.

STAAU_R12 [10] = molecular target: T3, STAAU_R12; assay: Far Western analysis with 32P-labeled HK-STAAU_R12 probe; assay type: binding; set-up: made in house; host or cells: E. coli BL21; conditions: 100 ng to 2 μg immobilised protein, FIG. 4
Description: Radiolabeling of the proteins was done through the heart muscle phosphate acceptor site with the heart muscle kinase enzyme (HMK). The labeled probe was incubated with immobilized target protein, and the interaction was detected by exposure to X-ray film after extensive washes.
For radiolabeling with […], 10-15 μg of STAAU_R12 fused to 6× histidine and the HMK kinase acceptor domain (HK-STAAU_R12) were incubated with 50 units of the catalytic sub-unit of cAMP-dependent protein kinase (Heart Muscle Kinase; Sigma) in a total volume of 100 μl containing 20 mM Tris pH 7.5, 100 mM NaCl, 12 mM MgCl2, 1 mM DTT and 50 μCi of [γ^32P]-ATP (3000 Ci/mmole) (NEN/Mandel) for 30 min at room temperature. To remove free nucleotides, the protein was applied to a Sephadex-G50™ column and eluted with Z-buffer (25 mM Hepes pH 7.7, 12.5 mM MgCl2, 20% glycerol, 100 mM KCl & 1 mM DTT) and the incorporation of γ^32P-ATP was determined by counting in a liquid scintillation counter.
Increasing amounts (from 100 ng to 2 μg) of HB-G1ORF67 and as a negative control, 77ORF104 protein (2 μg) were used for Far-western analysis. Proteins were resolved by 15% SDS-PAGE and transferred onto a nitrocellulose membrane (Millipore). […]

T3 sequence (P0A0J0 whole entry): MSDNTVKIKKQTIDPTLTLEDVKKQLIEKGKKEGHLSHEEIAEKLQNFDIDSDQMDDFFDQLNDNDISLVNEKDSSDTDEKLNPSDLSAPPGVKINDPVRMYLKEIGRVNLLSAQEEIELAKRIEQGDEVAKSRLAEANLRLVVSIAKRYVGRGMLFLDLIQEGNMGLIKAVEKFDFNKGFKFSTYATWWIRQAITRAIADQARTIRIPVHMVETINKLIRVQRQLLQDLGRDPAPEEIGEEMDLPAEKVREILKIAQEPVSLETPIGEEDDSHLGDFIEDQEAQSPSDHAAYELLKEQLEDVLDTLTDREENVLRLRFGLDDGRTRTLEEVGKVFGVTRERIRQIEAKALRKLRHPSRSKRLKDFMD
T2 sequence (P0A0I8 whole entry): as the sequence (P0A0J0 whole entry) above
T1 sequence (P0A0J0 whole entry): as above
holoenzyme reconstituted from STAAU_R12 and E. coli core RNA polymerase, sequence (P0A0J0 whole entry): as above
STAAU_R12 full length fused to the Gal4 activation domain (p[…]_R12), sequence (P0A0I8 whole entry, the tested form may be a part): as the sequence (P0A0J0 whole entry) above
STAAU_R12 with E. coli core and biotinylated λPR oligonucleotide, sequence (P0A0J0 whole entry): as above
SV40 large T antigen (pGADT7-LargeT), sequence (P03070 86-708 limits assumed): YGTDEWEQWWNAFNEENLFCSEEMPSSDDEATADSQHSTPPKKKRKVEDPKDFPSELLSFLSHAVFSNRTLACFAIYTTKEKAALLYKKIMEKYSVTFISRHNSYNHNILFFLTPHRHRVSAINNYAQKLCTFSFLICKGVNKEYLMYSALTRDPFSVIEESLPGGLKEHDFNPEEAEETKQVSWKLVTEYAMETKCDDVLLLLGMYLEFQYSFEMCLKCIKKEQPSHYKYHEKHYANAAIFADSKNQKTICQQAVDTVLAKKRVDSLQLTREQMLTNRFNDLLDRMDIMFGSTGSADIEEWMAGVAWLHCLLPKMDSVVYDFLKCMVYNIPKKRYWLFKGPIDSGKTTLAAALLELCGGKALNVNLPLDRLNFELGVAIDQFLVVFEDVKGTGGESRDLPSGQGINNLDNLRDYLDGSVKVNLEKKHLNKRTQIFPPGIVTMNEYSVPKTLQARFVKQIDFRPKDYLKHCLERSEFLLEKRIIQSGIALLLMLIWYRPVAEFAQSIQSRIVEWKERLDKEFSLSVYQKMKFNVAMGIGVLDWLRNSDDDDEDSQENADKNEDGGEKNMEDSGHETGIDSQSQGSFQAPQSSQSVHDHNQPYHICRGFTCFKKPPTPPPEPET

GST: glutathione-S-transferase protein used as a negative control [reference compound]
inhibition of STAAU_R12 mediated transcriptional activation (TCA precipitation) [1]: did not show any inhibition

B1: GB-G1ORF67 (other)
chain: MKLKILDKDNATLNVFHRNKEHKTIDNVPTANLVDWYPLSNAYEYKLSRNGEYLELKRLRSTLPSSYGLDDNNQDIIRDNNHRCKIGYWYNPAVRKDNLKIIEKAKQYGLPIITEEYDANTVEQGFRDIGVIFQSLKTIVVTRYLEGKTEEELRIFNMKSEESQLNEALKESDFSVDLTYSDLGQIYNMLLLMKKISK
notes: also called GST-Bio fusion of G1ORF67; GST-tagged G1ORF67
TR-FRET signal-to-background (HK-STAAU_R12 [2]): 30 ratio (to 1)

B2: untagged G1ORF67 (other)
chain: B1 chain
notes: also called G1ORF67 with GST portion removed by PreScission protease; not shown: the bioti
IC50 (HK-STAAU_R12 [3]): ~30 nM

B3: LaminC (pGBKT7LaminC) (other)
chain: MKLLSSIEQACDICRLKKLKCSKEKPKCAKCLKNNWECRYSPKTKRSPLTRAHLTEVESRLERLEQLFLLIFPREDLDMILKMDSLQDIKALLTGLFVQDNVNKDAVTDRLASVETDMPLTLRQHRISATSSSEESSNKGQRQLTVSSEEVVSREVSGIKAAYEAELGDARKTLDSVAKERARLQLELSKVREEFKELKARNTKKEGDLIAAQARLKDLEALLNSKEAALSTALSEKRTLEGELHDLRGQVAKLEAALGEAKKQLQDEMLRRVDAENRLQTMKEELDFQKNIYSEELRETKRRHETRLVEID
binding result [4]: no binding

B4: G1ORF67 full length fused to the Gal4 DNA-binding domain (G1pGBKORF67) (other)
chain: MKLLSSIEQACDICRLKKLKCSKEKPKCAKCLKNNWECRYSPKTKRSPLTRAHLTEVESRLERLEQLFLLIFPREDLDMILKMDSLQDIKALLTGLFVQDNVNKDAVTDRLASVETDMPLTLRQHRISATSSSEESSNKGQRQLTVSMKLKILDKDNATLNVFHRNKEHKTIDNVPTANLVDWYPLSNAYEYKLSRNGEYLELKRLRSTLPSSYGLDDNNQDIIRDNNHRCKIGYWYNPAVRKDNLKIIEKAKQYGLPIITEEYDANTVEQGFRDIGVIFQSLKTIVVTRYLEGKTEEELRIFNMKSEESQLNEALKESDFSVDLTYSDLGQIYNMLLLMKKISK
binding result [5]: no binding

B5: G1ORF67: 198 amino acids protein from S. aureus bacteriophage G1 (SEQ ID NO: 7), anti-primary sigma factor (protein)
chain: B1 chain
modifications: Bacteriophage G1
number of CFU in cells expressing the ORF (S. aureus RN4220; S. aureus RN4220, induced with 5 μM NaAsO2, FIG. 1): significantly reduced
type of growth inhibitory effect on S. aureus (S. aureus RN4220; expression of the ORF in S. aureus): bacteriostatic
effect on transcription by E. coli holoenzyme [6]: did not affect transcription
inhibition of STAAU_R12-mediated transcriptional activation [7]: dramatic inhibition
reduction of the TR-FRET signal (core-dependent DNA binding of STAAU_R12) [8]: 7 fold
inhibition of STAAU_R12 mediated transcriptional activation (TCA precipitation) [1]: dramatic inhibition

B6: G1ORF67—50—198: 149 amino acid fragment of G1ORF67, amino acids residues 50 to 198 (SEQ ID NO: 8) (protein)
chain: NGEYLELKRLRSTLPSSYGLDDNNQDIIRDNNHRCKIGYWYNPAVRKDNLKIIEKAKQYGLPIITEEYDANTVEQGFRDIGVIFQSLKTIVVTRYLEGKTEEELRIFNMKSEESQLNEALKESDFSVDLTYSDLGQIYNMLLLMKKISK
modifications: Bacteriophage G1
interaction with full length STAAU_R12 (growth on SD THAL minus medium) (STAAU_R12 [9]): found to interact

B7: HB-G1ORF67: G1ORF67 fused N-terminally to 6× Histidine residues and a biotin acceptor domain, purified from E. coli (protein)
chain: B1 chain
modifications: left off: small tags and cut ends
notes: G1ORF67 fused N-terminally to 6× Histidine residues and a biotin acceptor domain, purified from E. coli
interaction with labeled STAAU_R12 probe (STAAU_R12 [10]): directly interacts with STAAU_R12 in a dose-dependent manner
